Source: article PMC3441419, “The Redox-Sensing Regulator Rex Modulates Central Carbon Metabolism, Stress Tolerance Response and Biofilm Formation by Streptococcus mutans”

T1: rRex (Streptococcus mutans UA159?) (UniProt Q8DU91)
T1 sequence: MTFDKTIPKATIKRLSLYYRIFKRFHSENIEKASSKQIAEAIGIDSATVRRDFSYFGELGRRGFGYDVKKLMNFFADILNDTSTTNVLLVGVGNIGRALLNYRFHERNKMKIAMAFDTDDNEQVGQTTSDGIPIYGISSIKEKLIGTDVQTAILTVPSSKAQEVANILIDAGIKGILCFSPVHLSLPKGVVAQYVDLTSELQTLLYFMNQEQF

T2: rRex (UniProt Q8DU91 1-213)
T2 sequence: T1 sequence

B1: adhE1 cold oligo (dsDNA)
DNA 1: TTTTGTGAAAAGGGTTACAATG
DNA 2: CATTGTAACCCTTTTCACAAAA
B2: mutated adhE Rex-box oligo m148Fw/m148Rv (dsDNA)
DNA 1: ATTTTTAACAGTAAAGGGTTACAATGACAAG
DNA 2: CTTGTCATTGTAACCCTTTACTGTTAAAAAT
B3: adhE Rex-box oligo 148Fw/148Rv (dsDNA)
DNA 1: ATTTTTTTGTGAAAAGGGTTACAATGACAAG
DNA 2: CTTGTCATTGTAACCCTTTTCACAAAAAAAT

Columns and labels:
[1] = target: T1, rRex (Streptococcus mutans UA159?); test: EMSA; conditions: 20 mM Tris pH 8.0, 1 mM EDTA, 75 mM KCl, 2 mM DTT, 10% glycerol, 10 min at room temperature (+15 min after NAD+/NADH); 5% native PAGE
rRex [2] = target: T2, rRex; test: competition; unlabeled competitor against biotinylated adhE1, dose-dependent; 20 mM Tris pH 8.0, 1 mM EDTA, 75 mM KCl, 2 mM DTT, 10% glycerol, 10 min at room temperature (+15 min after NAD+/NADH); 5% native PAGE; conditions: protein: recombinant; tags: N-terminal His (pQE30); blunt
rRex [3] = target: T2, rRex; test: EMSA; 20 mM Tris pH 8.0, 1 mM EDTA, 75 mM KCl, 2 mM DTT, 10% glycerol, 10 min at room temperature (+15 min after NAD+/NADH); 5% native PAGE; conditions: protein: recombinant; tags: N-terminal His (pQE30); blunt

Molecule	binding [1]	binding result (rRex [3])	also measured
ACAAGCCCATACTGAGTTTGGACATTAAAGCTCAGCAGGGCTATGATTATGATGTCATTATCATCGGCGGCGGTGTTTCAGGTGTGACTCTAGCC (double strand) [gshR promoter]	binds		
ATGACAGTTCCTCGCATTTTTAATTTATGTTATAATTATAAGTGAAAAACATCACATTTGAAAAGCCTTACAAATATCTTAAAAAATGACTTTTTATGACTTTTAGATGGGAGGTTTGCTTAGT (double strand) [frdC promoter]	binds		
B1			binding result (rRex [2]): binds
B2		no binding	
B3		binds	
